± gives the uncertainty stated by the source.
B1: Glucocorticoid receptor, residues 419 to 494; numbered along this chain, P04150 (parent)
chain: KLCLVCSDEASGCHYGVLTCGSCKVFFKRAVEGQHNYLCAGRNDCIIDKIRRKNCPACRYRKCLQAGMNLEARKTK

Variants of: B1
Test: abundance fitness (aPCA) (normalised: wild type 0, dead -1); higher = more abundant; growth selection in yeast, the domain comes from the species named
Conditions: Homo sapiens
KLCLVCSNEASGCHYGVLTCGSCKVFFKRAVEGQHNYLCAGRNDCIIDKIRRKNCPACRYRKCLQAGMNLEARKTK [D8N] gave an abundance fitness of -0.147 ± 0.089.
For KLCLVCSDEASGCHYGVLTCGSCQVFFKRAVEGQHNYLCAGRNDCIIDKIRRKNCPACRYRKCLQAGMNLEARKTK [K24Q], the abundance fitness was 0.044 ± 0.06.
For KLCLVCSDEASGCHYGVLTCGSCKVFFKRAVEGQHNYLCAGRNDCIIDKIRRKNCPACRYRKCLQAGMNLEALKTK [R73L], the abundance fitness was -0.04 ± 0.033.
Work on KLCLVCSDEASGCHYGVLTCGSCKVFFKRAVEGQHNYLCAGRNDCIIDKIRRKNCPACRYRKCLQAGMNLEAGKTK [R73G] yielded an abundance fitness of -0.021 ± 0.032.
With KLCLVCSDEASGCHYGVLTCGSCKVFFKRAVEGQHNYLCAGRNDCIIDKIRRKNCLACRYRKCLQAGMNLEARKTK [P56L] the abundance fitness was -0.047 ± 0.034.
Variant KLCLVCSDEASGCHYGVLTCGSCKVFFKRAVEGQHNYLCAGRNDCIIDKIRRKNCSACRYRKCLQAGMNLEARKTK [P56S] has an abundance fitness of -0.035 ± 0.038.
Variant KLCLVCSDEASGCHYGVLTCGSCKVFFKRAVEGQHNYLCAGRGDCIIDKIRRKNCPACRYRKCLQAGMNLEARKTK [N43G] has an abundance fitness of -0.024 ± 0.03.
With KLCLVCSDEASGCHYGVLTCGSCKVFFKRAVEGQHNYLCAGRYDCIIDKIRRKNCPACRYRKCLQAGMNLEARKTK [N43Y] the abundance fitness was -0.008 ± 0.066.
KLCLVCSDEASGCHYGVLTCGSCKVFFKRAVEGQHNYLCAGRRDCIIDKIRRKNCPACRYRKCLQAGMNLEARKTK [N43R] showed an abundance fitness of -0.052 ± 0.03.
Work on KLCLVCSDEASGCHYGVLTCGSCKVFFKRAVEGQHNGLCAGRNDCIIDKIRRKNCPACRYRKCLQAGMNLEARKTK [Y37G] yielded an abundance fitness of -0.074 ± 0.04.
In the case of KLCLVCSDEASQCHYGVLTCGSCKVFFKRAVEGQHNYLCAGRNDCIIDKIRRKNCPACRYRKCLQAGMNLEARKTK [G12Q], the abundance fitness is reported as -0.034 ± 0.048.
With KLCLVCSDEASGCHYGVLTCMSCKVFFKRAVEGQHNYLCAGRNDCIIDKIRRKNCPACRYRKCLQAGMNLEARKTK [G21M] the abundance fitness was -0.032 ± 0.05.
Variant KLCLVCSDEASGCHYGVLTCGSCKVFFKRAVEGQHNYLCAGRNDCIIDFIRRKNCPACRYRKCLQAGMNLEARKTK [K49F] has an abundance fitness of -0.019 ± 0.065.
For KLCLVCSDEASGCHYGVLTCGSCKVFFKRAVEGQHNYLCAGRNDCIIDKIRRKNCPACRYRMCLQAGMNLEARKTK [K62M], the abundance fitness was -0.042 ± 0.041.
KLCLVCSDEASGCHYGVLTCGSCKVFFKRAVEGQHNYLCAGRNDCIIDKIRRKNCPACRYGKCLQAGMNLEARKTK [R61G] gave an abundance fitness of -0.063 ± 0.031.
KLCLVCSDEASGCHYGVLTCGSCKVFFKRAVEGQHNYLCAGRNDCIIIKIRRKNCPACRYRKCLQAGMNLEARKTK [D48I] gave an abundance fitness of -0.579 ± 0.17.
KLCLVCSDEASGCHYGVLTCGSCKVFFKRAVEGQHNYLCQGRNDCIIDKIRRKNCPACRYRKCLQAGMNLEARKTK [A40Q] gave an abundance fitness of 0.012 ± 0.047.
KLCLVCSDEASGCHYGVLTCGSCKVMFKRAVEGQHNYLCAGRNDCIIDKIRRKNCPACRYRKCLQAGMNLEARKTK [F26M] gave an abundance fitness of -0.793 ± 0.14.
KLCLVCSDEASGCHYGVLTCGSCKVSFKRAVEGQHNYLCAGRNDCIIDKIRRKNCPACRYRKCLQAGMNLEARKTK [F26S] gave an abundance fitness of -0.703 ± 0.076.
For KLCLVCSDEASGCHYGVLTCGSCKVFFKRAVEGQHNYLCAGRNDCISDKIRRKNCPACRYRKCLQAGMNLEARKTK [I47S], the abundance fitness was -0.252 ± 0.04.
TLCLVCSDEASGCHYGVLTCGSCKVFFKRAVEGQHNYLCAGRNDCIIDKIRRKNCPACRYRKCLQAGMNLEARKTK [K1T] gave an abundance fitness of -0.324 ± 0.062.
In the case of KLCLVCSDEASGCHYGVYTCGSCKVFFKRAVEGQHNYLCAGRNDCIIDKIRRKNCPACRYRKCLQAGMNLEARKTK [L18Y], the abundance fitness is reported as 0.098 ± 0.086.
Work on KLCLVCSDEASGCHYGVRTCGSCKVFFKRAVEGQHNYLCAGRNDCIIDKIRRKNCPACRYRKCLQAGMNLEARKTK [L18R] yielded an abundance fitness of -0.036 ± 0.036.
Variant KLCLVCSDEASGCHYGVATCGSCKVFFKRAVEGQHNYLCAGRNDCIIDKIRRKNCPACRYRKCLQAGMNLEARKTK [L18A] has an abundance fitness of 0.097 ± 0.044.
With KLCLVCSDEASGCHYGVLTCGSCKVFFKRAVTGQHNYLCAGRNDCIIDKIRRKNCPACRYRKCLQAGMNLEARKTK [E32T] the abundance fitness was -0.007 ± 0.041.
Work on KLCLVCSDEAMGCHYGVLTCGSCKVFFKRAVEGQHNYLCAGRNDCIIDKIRRKNCPACRYRKCLQAGMNLEARKTK [S11M] yielded an abundance fitness of -0.015 ± 0.049.
Work on KLCLVCSDEALGCHYGVLTCGSCKVFFKRAVEGQHNYLCAGRNDCIIDKIRRKNCPACRYRKCLQAGMNLEARKTK [S11L] yielded an abundance fitness of 0.033 ± 0.036.
KLCLVCSDEASGCHYGVLTCGSCKVFSKRAVEGQHNYLCAGRNDCIIDKIRRKNCPACRYRKCLQAGMNLEARKTK [F27S] gave an abundance fitness of -0.681 ± 0.079.
For KLCLVCSDEASGCHYGVLTCGSCKVFPKRAVEGQHNYLCAGRNDCIIDKIRRKNCPACRYRKCLQAGMNLEARKTK [F27P], the abundance fitness was -0.695 ± 0.15.
Work on KLCLVCSDEASGCHYGVLTCGSCKVFYKRAVEGQHNYLCAGRNDCIIDKIRRKNCPACRYRKCLQAGMNLEARKTK [F27Y] yielded an abundance fitness of 0 ± 0.073.
With KLCLVCSDEASGCHYGVLTCGSCKVFAKRAVEGQHNYLCAGRNDCIIDKIRRKNCPACRYRKCLQAGMNLEARKTK [F27A] the abundance fitness was -0.25 ± 0.038.
With KLCLVCSDEASGCHYGVLTCGSCKAFFKRAVEGQHNYLCAGRNDCIIDKIRRKNCPACRYRKCLQAGMNLEARKTK [V25A] the abundance fitness was 0.045 ± 0.056.
With KLCLVCSDEASGCHYGVLTCGSCKMFFKRAVEGQHNYLCAGRNDCIIDKIRRKNCPACRYRKCLQAGMNLEARKTK [V25M] the abundance fitness was -0.094 ± 0.067.
In the case of KLCLVCSDEASGCHYGVLTCGSCKVFFKRAVEGQHNYLFAGRNDCIIDKIRRKNCPACRYRKCLQAGMNLEARKTK [C39F], the abundance fitness is reported as -0.603 ± 0.16.
With KLCLVCSDEASGCHYGVLTCGSCKVFFKRAVEGQHNYLCAGRNDCIIDKHRRKNCPACRYRKCLQAGMNLEARKTK [I50H] the abundance fitness was -0.153 ± 0.097.
KLCLVCSDEASGCHYGVLTCGSCKVFFKRAVEGQHNYLCAGRNDCIIDKNRRKNCPACRYRKCLQAGMNLEARKTK [I50N] showed an abundance fitness of -0.018 ± 0.08.

Reference: the Human Domainome abundance scans (Beltran et al. 2025)
